Patent US20140302123A1

Target: PTPN4 as expressed in U373MG cells (human) (UniProt P29074)
Assay: cell-based or functional assay

PTPN4 as expressed in U373MG cells (human), sequence (P29074 whole entry): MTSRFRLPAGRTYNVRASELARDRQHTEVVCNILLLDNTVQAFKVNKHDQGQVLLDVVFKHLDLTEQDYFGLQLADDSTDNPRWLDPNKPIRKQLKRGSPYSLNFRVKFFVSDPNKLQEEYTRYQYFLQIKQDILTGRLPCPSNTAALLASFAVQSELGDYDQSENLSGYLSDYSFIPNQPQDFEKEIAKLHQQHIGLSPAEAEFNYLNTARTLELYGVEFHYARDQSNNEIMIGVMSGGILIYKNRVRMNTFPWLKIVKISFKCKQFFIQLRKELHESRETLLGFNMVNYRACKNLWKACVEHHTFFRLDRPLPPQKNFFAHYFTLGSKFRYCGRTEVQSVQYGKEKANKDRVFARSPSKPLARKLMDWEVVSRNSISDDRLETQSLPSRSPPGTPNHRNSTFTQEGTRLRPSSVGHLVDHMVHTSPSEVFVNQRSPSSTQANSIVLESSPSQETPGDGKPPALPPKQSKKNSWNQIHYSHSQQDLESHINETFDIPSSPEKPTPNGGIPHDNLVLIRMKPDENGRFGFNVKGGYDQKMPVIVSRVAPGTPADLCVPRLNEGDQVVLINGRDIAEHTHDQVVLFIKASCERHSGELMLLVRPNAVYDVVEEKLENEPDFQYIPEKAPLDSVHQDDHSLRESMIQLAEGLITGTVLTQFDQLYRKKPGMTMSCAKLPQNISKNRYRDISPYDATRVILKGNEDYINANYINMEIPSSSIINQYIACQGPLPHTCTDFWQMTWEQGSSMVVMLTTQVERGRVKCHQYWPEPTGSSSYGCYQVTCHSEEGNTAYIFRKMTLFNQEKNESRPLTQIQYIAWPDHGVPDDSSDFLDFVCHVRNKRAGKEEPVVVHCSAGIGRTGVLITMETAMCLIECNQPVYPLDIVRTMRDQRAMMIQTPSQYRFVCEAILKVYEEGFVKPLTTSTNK

“Tat-conjugated, FITC-labelled GluN2A-16 (peptide)” gave a cell death (% of dead cells among peptide loaded cells), U373MG, 3 h, 25 microM, propidium iodide of 29%.
